# Target: murine anti-fHbp monoclonal antibody JAR5 (IgG2b) (mouse)
# Test: SPR
# Settings: not given
# murine anti-fHbp monoclonal antibody JAR5 (IgG2b) (mouse), sequence (heavy, as listed by the source, chain 1 of 2, other chains not shown): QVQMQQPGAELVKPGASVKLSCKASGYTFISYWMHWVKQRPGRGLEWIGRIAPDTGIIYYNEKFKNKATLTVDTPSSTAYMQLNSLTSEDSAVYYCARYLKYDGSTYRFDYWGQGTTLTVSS
row,Molecule,Kd [nM]
1,fHbp variant 1.1 Gln115Ala mutant (natural protein),23
2,fHbp variant 1.1 Asp85Ala mutant (natural protein),20
3,fHbp variant 1.1 Gly121Ala mutant (natural protein),20
4,fHbp variant 1.1 Lys122Ser mutant (natural protein),13
5,fHbp variant 1.1 Gln87Ala mutant (natural protein),1.7
6,fHbp variant 1.1 Lys122Ala mutant (natural protein),17

# Target: T1, factor H binding protein (fHbp) variant 1.1, wild type (Neisseria meningitidis serogroup B …, UniProt Q9JXV4)
# T1 construct: source: E. coli BL21(DE3), purified
# Test: SPR; fHbp covalently immobilised by amine coupling on a CM5 chip (~500 RU); mAbs at 100 nM in HBS-EP injected one after the other (first mAb to saturation, then the second), both orders; 25 °C
# Settings: both partners purified
row,Molecule,binding result
1,"murine anti-fHbp monoclonal antibody 12C1 (IgG2b) (antibody, V domains shown, also called mAb 12C1) VH: QVQLQESGPELVKPGASVKISCKASGYSFSDYNMSWVKQSNGKSLEWIGIIDPKYGTINYNQKFKGKATLTVDQASSTAYMQLNSLTSEDSAVYYCVRDYYGSSYFDYWGQGTTLTVSS VL: DIVLTQSPSSIYASLGERVTLTCKASQDIHNYLNWFQQKPGKSPKTLIYRANRLVDGVPSRFSGGGSGQDYSLTISSLEFEDIGIYYCLQYDEFPPTFGGGTRLEIK",binds

# Source: publication PMC6398935 (The Biochemical journal, 2016)
